Measured values: the Human Domainome abundance scans (Beltran et al. 2025)
± gives the uncertainty stated by the source.

B1: POU domain, class 3, transcription factor 4, residues 280 to 335; numbered along this chain, P49335 (parent)
chain: KKRTSIEVSVKGVLETHFLKCPKPAAQEISSLADSLQLEKEVVRVWFCNRRQKEKR

Variants of: B1
Test: abundance fitness (aPCA) (normalised: wild type 0, dead -1); higher = more abundant; growth selection in yeast, the domain comes from the species named
Conditions: Homo sapiens

Row | Variant | abundance fitness
1 | KKRTSIEVSVKGVLETHFLKCPKPAAQEISSLADSLQLEKEVYRVWFCNRRQKEKR | -0.545 ± 0.23
2 | KKRTSIEVSVKGVLETHFLKCPKPAAQEISSLADSLQLEKEVCRVWFCNRRQKEKR | -0.832 ± 0.27
3 | KKRTSIEVSVKGVLETHFLKCPKPAAQEISSLADSLQLEKEVQRVWFCNRRQKEKR | -0.601 ± 0.3
4 | KKRTSIEVSVKGVLETHFLKCPKPAAQEISSLADSLQLEKEVDRVWFCNRRQKEKR | -0.614 ± 0.28
5 | KKRTSIEVSVKGVLETHFLKCPKPAAQEISSLADSLQLEKEVVYVWFCNRRQKEKR | -0.643 ± 0.34
6 | KKRTSIEVSVKGVLETHFLKCPKPAAQEISSLADSLQLEKEVVPVWFCNRRQKEKR | -0.865 ± 0.26
7 | KKRTSIEVSVKGVLETHFLKCPKPAAQEISSLADSLQLEKEVVAVWFCNRRQKEKR | -0.193 ± 0.13
8 | KKRTSIEVSVKGVLETHFLKCPKPAAQEISSLADSLQLEKEVVCVWFCNRRQKEKR | -0.801 ± 0.38
9 | KKRTSIEVSVKGVLETHFLKCPKPAAQEISSLADSLQLEKEVVIVWFCNRRQKEKR | -1.01 ± 0.36
10 | KKRTSIEVSVKGVLETHFLKCPKPAAQEISSLADSLQLEKEVVEVWFCNRRQKEKR | 0.182 ± 0.18
11 | KKRTSIEVSVKGVLETHFLKCPKPAAQEISSLADSLQLEKEVVLVWFCNRRQKEKR | -0.686 ± 0.12
12 | KKRTSIEVSVKGVLETHFLKCPKPAAQEISSLADSLQLEKEVVNVWFCNRRQKEKR | 0.059 ± 0.23
13 | KKRTSIEVSVKGVLETHFLKCPKPAAQEISSLADSLQLEKEVVVVWFCNRRQKEKR | -0.84 ± 0.16
14 | KKRTSIEVSVKGVLETHFLKCPKPAAQEISSLADSLQLEKEVVGVWFCNRRQKEKR | -0.473 ± 0.14
15 | KKRTSIEVSVKGVLETHFLKCPKPAAQEISSLADSLQLEKEVVQVWFCNRRQKEKR | -0.074 ± 0.16
16 | KKRTSIEVSVKGVLETHFLKCPKPAAQEISSLADSLQLEKEVVWVWFCNRRQKEKR | -0.68 ± 0.2
17 | KKRTSIEVSVKGVLETHFLKCPKPAAQEISSLADSLQLEKEVVSVWFCNRRQKEKR | -0.343 ± 0.14
18 | KKRTSIEVSVKGVLETHFLKCPKPAAQEISSLADSLQLEKEVVMVWFCNRRQKEKR | -0.539 ± 0.22
19 | KKRTSIEVSVKGVLETHFLKCPKPAAQEISSLADSLQLEKEVVTVWFCNRRQKEKR | -0.343 ± 0.16
20 | KKRTSIEVSVKGVLETHFLKCPKPAAQEISSLADSLQLEKTVVRVWFCNRRQKEKR | -0.466 ± 0.21
21 | KKRTSIEVSVKGVLETHFLKCPKPAAQEISSLADSLQLEKYVVRVWFCNRRQKEKR | -0.819 ± 0.4
22 | KKRTSIEVSVKGVLETHFLKCPKPAAQEISSLADSLQLEKDVVRVWFCNRRQKEKR | 0.043 ± 0.2
23 | KKRTSIEVSVKGVLETHFLKCPKPAAQEISSLADSLQLEKRVVRVWFCNRRQKEKR | -0.637 ± 0.14
24 | KKRTSIEVSVKGVLETHFLKCPKPAAQEISSLADSLQLEKAVVRVWFCNRRQKEKR | -0.776 ± 0.19

Row | Variant | abundance fitness
25 | KKRTSIEVSVKGVLETHFLKCPKPAAQEISSLADSLQLEKFVVRVWFCNRRQKEKR | -0.841 ± 0.23
26 | KKRTSIEVSVKGVLETHFLKCPKPAAQEISSLADSLQLEKIVVRVWFCNRRQKEKR | -0.828 ± 0.31
27 | KKRTSIEVSVKGVLETHFLKCPKPAAQEISSLADSLQLEKVVVRVWFCNRRQKEKR | -0.817 ± 0.2
28 | KKRTSIEVSVKGVLETHFLKCPKPAAQEISSLADSLQLEKKVVRVWFCNRRQKEKR | -0.602 ± 0.21
29 | KKRTSIEVSVKGVLETHFLKCPKPAAQEISSLADSLQLEKGVVRVWFCNRRQKEKR | -0.709 ± 0.14
30 | KKRTSIEVSVKGVLETHFLKCPKPAAQEISSLADSLQLEKSVVRVWFCNRRQKEKR | -0.368 ± 0.13
31 | KKRTSIEVSVKGVLETHFLKCPKPAAQEISSLADSLQLEKNVVRVWFCNRRQKEKR | -0.189 ± 0.29
32 | KKRTSIEVSVKGVLETHFLKCPKPAAQEISSLADSLQLEKWVVRVWFCNRRQKEKR | -0.852 ± 0.2
33 | KKRTSIEVSVKGVLETHFLKCPKPAAQEISSLADSLQLEKHVVRVWFCNRRQKEKR | -0.161 ± 0.21
34 | KKRTSIEVSVKGVLETHFLKCPKPAAQEISSLADSLQLEKQVVRVWFCNRRQKEKR | -0.792 ± 0.5
35 | KKRTSIEVSVKGVLETHFLKCPKPAAQEISSLADSLQLEKPVVRVWFCNRRQKEKR | -0.831 ± 0.25
36 | KKRTSIEVSVKGVLETHFLKCPKPAAQEISSLADSLQLEKLVVRVWFCNRRQKEKR | -0.955 ± 0.15
37 | KKRTSIEVSVKGVLETHFLKCPKPAAQEISSLADSLQLEKCVVRVWFCNRRQKEKR | -0.84 ± 0.23
38 | KKRTSIEVSVKGVLETHFLKCPKPAAQEISSLADSLQLEKEVVRGWFCNRRQKEKR | -0.25 ± 0.14
39 | KKRTSIEVSVKGVLETHFLKCPKPAAQEISSLADSLQLEKEVVREWFCNRRQKEKR | 0.193 ± 0.14
40 | KKRTSIEVSVKGVLETHFLKCPKPAAQEISSLADSLQLEKEVVRFWFCNRRQKEKR | -0.517 ± 0.37
41 | KKRTSIEVSVKGVLETHFLKCPKPAAQEISSLADSLQLEKEVVRHWFCNRRQKEKR | -0.077 ± 0.26
42 | KKRTSIEVSVKGVLETHFLKCPKPAAQEISSLADSLQLEKEVVRLWFCNRRQKEKR | 0.052 ± 0.12
43 | KKRTSIEVSVKGVLETHFLKCPKPAAQEISSLADSLQLEKEVVRAWFCNRRQKEKR | 0.085 ± 0.12
44 | KKRTSIEVSVKGVLETHFLKCPKPAAQEISSLADSLQLEKEVVRMWFCNRRQKEKR | -0.041 ± 0.26
45 | KKRTSIEVSVKGVLETHFLKCPKPAAQEISSLADSLQLEKEVVRIWFCNRRQKEKR | -0.527 ± 0.34
46 | KKRTSIEVSVKGVLETHFLKCPKPAAQEISSLADSLQLEKEVVRCWFCNRRQKEKR | -0.243 ± 0.36
47 | KKRTSIEVSVKGVLETHFLKCPKPAAQEISSLADSLQLEKEVVRKWFCNRRQKEKR | 0.165 ± 0.18
